Experiments:
[1] = molecular target: 3×HA-FKBP-SKP1 (human | Cyanidioschyzon merolae)
[2] = molecular target: 3×HA-FKBP-CUL1 (human | Cyanidioschyzon merolae)

mVenus-FRB (domain or fragment)
half-life (t1/2) of mVenus-FRB in the mV^RD-SKP1 strain after the addition of 500 nM rapamycin (the bridging compound), immunoblot time course [1]: 46 min | half-life (t1/2) of mVenus-FRB in the mV^RD-CUL1 strain after the addition of 500 nM rapamycin (the bridging compound), immunoblot time course [2]: 30 min
